US20150344570A1 (published 2015)

T1: FcγRIIb extracellular domain with C-terminal His tag (human, UniProt P31994 43-217)
T1 construct: extracellular domain; soluble analyte in Biacore; also called FcgRIIb; not shown: His tag at the C terminus
T1 sequence (looked up): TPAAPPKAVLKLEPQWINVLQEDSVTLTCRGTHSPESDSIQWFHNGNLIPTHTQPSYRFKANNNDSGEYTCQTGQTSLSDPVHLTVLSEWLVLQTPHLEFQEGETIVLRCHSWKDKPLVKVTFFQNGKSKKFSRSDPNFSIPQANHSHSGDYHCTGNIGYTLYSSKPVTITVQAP


Tests used:
[1] = molecular target: T2, FcγRIa extracellular domain with C-terminal His tag (human, UniProt P12314 16-292); experiment: SPR, binding relative to GpH7-A5/GpH7-B3/GpL16-k0 = 100
T2 construct: extracellular domain; soluble analyte in Biacore; also called FcgRI; not shown: His tag at the C terminus

[2] = molecular target: T1, FcγRIIb extracellular domain with …; experiment: as above
FcγRIa = molecular target: T3, FcγRIa (human, UniProt P12314 16-292); experiment: SPR (Biacore); Ho Ab vs HoCon Ab GpH7-B3/GpL16-k0
T3 construct: extracellular domain; Soluble extracellular domain expressed in FreeStyle293 cells, used as analyte in Biacore; also called FcgRI; 1a; not shown: His tag attached to the C terminus
Procedure: Analysis of interaction between objective antibody and the FcγR was carried out using Biacore T100 (GE Healthcare). HBS-EP+ (GE Healthcare) was used as the running buffer, and the measurement temperature was set to 25° C. Chips produced by immobilizing the antigen peptide by the amine coupling method to a Series S Sencor Chip CM5 (GE Healthcare), or alternatively, chips produced by allowing preliminarily biotinylated antigen peptides to interact with and immobilize onto a Series S Sensor Chip SA (certified) (GE Healthcare) were used. Antibodies of interest were captured onto an antigen peptide-immobilized chip, and allowed to interact to each FcγR diluted with running buffer. To regenerate and repeatedly use the chip, the antibodies captured on the chip were washed off by reacting 10 mM glycine-HCl, pH 1.5.

T2 sequence (P12314 16-292): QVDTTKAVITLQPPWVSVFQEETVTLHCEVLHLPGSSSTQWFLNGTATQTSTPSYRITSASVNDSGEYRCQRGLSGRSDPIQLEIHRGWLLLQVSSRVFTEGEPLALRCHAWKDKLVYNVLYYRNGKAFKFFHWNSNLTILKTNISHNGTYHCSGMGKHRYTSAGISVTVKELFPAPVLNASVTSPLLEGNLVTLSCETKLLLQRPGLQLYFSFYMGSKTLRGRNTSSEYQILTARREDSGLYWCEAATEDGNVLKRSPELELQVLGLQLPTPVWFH
T3 sequence (P12314 16-292): as above

Binder	He/Con_1a [1]	He/Con_2b [2]	Ho/Con_1a (FcγRIa)
GpH7-A5/GpH7-B3 variant S324_08L/GpL16-k0 (antibody, human IgG1, kappa, change in the GpH7-B3 H chain only; also called He Ab) heavy 1: not shown heavy 2: not shown light: DIVMTQSPLSLPVTPGEPASISCQASESLVHSNRNTYLHWYLQKPGQSPQLLIYKVSNRFSGVPDRFSGSGSGTDFTLKISRVEAEDVGVYYCSQNTHVPPTFGQGTKVEIERTVAAPSVFIFPPSDEQLKSGTASVVCLLNNFYPREAKVQWKVDNALQSGNSQESVTEQDSKDSTYSLSSTLTLSKADYEKHKVYACEVTHQGLSSPVTKSFNRGEC	103 % of control	89.6 % of control	
GpH7-B3 variant S298_11K/GpL16-k0 (antibody, human IgG1, kappa, also called Ho Ab S298_11K) heavy: not shown light: DIVMTQSPLSLPVTPGEPASISCQASESLVHSNRNTYLHWYLQKPGQSPQLLIYKVSNRFSGVPDRFSGSGSGTDFTLKISRVEAEDVGVYYCSQNTHVPPTFGQGTKVEIERTVAAPSVFIFPPSDEQLKSGTASVVCLLNNFYPREAKVQWKVDNALQSGNSQESVTEQDSKDSTYSLSSTLTLSKADYEKHKVYACEVTHQGLSSPVTKSFNRGEC			90.4 relative binding, control = 100
GpH7-A5/GpH7-B3 variant S324_19Q/GpL16-k0 (antibody, human IgG1, kappa, change in the GpH7-B3 H chain only; also called He Ab) heavy 1: not shown heavy 2: not shown light: DIVMTQSPLSLPVTPGEPASISCQASESLVHSNRNTYLHWYLQKPGQSPQLLIYKVSNRFSGVPDRFSGSGSGTDFTLKISRVEAEDVGVYYCSQNTHVPPTFGQGTKVEIERTVAAPSVFIFPPSDEQLKSGTASVVCLLNNFYPREAKVQWKVDNALQSGNSQESVTEQDSKDSTYSLSSTLTLSKADYEKHKVYACEVTHQGLSSPVTKSFNRGEC	112 % of control	66.8 % of control	
GpH7-A5/GpH7-B3 variant S324_10E/GpL16-k0 (antibody, human IgG1, kappa, change in the GpH7-B3 H chain only; also called He Ab) heavy 1: not shown heavy 2: not shown light: DIVMTQSPLSLPVTPGEPASISCQASESLVHSNRNTYLHWYLQKPGQSPQLLIYKVSNRFSGVPDRFSGSGSGTDFTLKISRVEAEDVGVYYCSQNTHVPPTFGQGTKVEIERTVAAPSVFIFPPSDEQLKSGTASVVCLLNNFYPREAKVQWKVDNALQSGNSQESVTEQDSKDSTYSLSSTLTLSKADYEKHKVYACEVTHQGLSSPVTKSFNRGEC	105 % of control	77.4 % of control	

The remaining lines, values ahead:

He/Con_1a [1]	He/Con_2b [2]	Ho/Con_1a (FcγRIa)	Binder
116 % of control	81.1 % of control		GpH7-A5/GpH7-B3 variant S324_18N/GpL16-k0 (antibody, human IgG1, kappa, change in the GpH7-B3 H chain only; also called He Ab) heavy 1: not shown heavy 2: not shown light: DIVMTQSPLSLPVTPGEPASISCQASESLVHSNRNTYLHWYLQKPGQSPQLLIYKVSNRFSGVPDRFSGSGSGTDFTLKISRVEAEDVGVYYCSQNTHVPPTFGQGTKVEIERTVAAPSVFIFPPSDEQLKSGTASVVCLLNNFYPREAKVQWKVDNALQSGNSQESVTEQDSKDSTYSLSSTLTLSKADYEKHKVYACEVTHQGLSSPVTKSFNRGEC
		100 relative binding, control = 100	GpH7-B3 variant P271_04F/GpL16-k0 (antibody, human IgG1, kappa, also called Ho Ab P271_04F) heavy: not shown light: DIVMTQSPLSLPVTPGEPASISCQASESLVHSNRNTYLHWYLQKPGQSPQLLIYKVSNRFSGVPDRFSGSGSGTDFTLKISRVEAEDVGVYYCSQNTHVPPTFGQGTKVEIERTVAAPSVFIFPPSDEQLKSGTASVVCLLNNFYPREAKVQWKVDNALQSGNSQESVTEQDSKDSTYSLSSTLTLSKADYEKHKVYACEVTHQGLSSPVTKSFNRGEC
114 % of control	88.2 % of control		GpH7-A5/GpH7-B3 variant S324_15Y/GpL16-k0 (antibody, human IgG1, kappa, change in the GpH7-B3 H chain only; also called He Ab) heavy 1: not shown heavy 2: not shown light: DIVMTQSPLSLPVTPGEPASISCQASESLVHSNRNTYLHWYLQKPGQSPQLLIYKVSNRFSGVPDRFSGSGSGTDFTLKISRVEAEDVGVYYCSQNTHVPPTFGQGTKVEIERTVAAPSVFIFPPSDEQLKSGTASVVCLLNNFYPREAKVQWKVDNALQSGNSQESVTEQDSKDSTYSLSSTLTLSKADYEKHKVYACEVTHQGLSSPVTKSFNRGEC
114 % of control	87.5 % of control		GpH7-A5/GpH7-B3 variant S324_20W/GpL16-k0 (antibody, human IgG1, kappa, change in the GpH7-B3 H chain only; also called He Ab) heavy 1: not shown heavy 2: not shown light: DIVMTQSPLSLPVTPGEPASISCQASESLVHSNRNTYLHWYLQKPGQSPQLLIYKVSNRFSGVPDRFSGSGSGTDFTLKISRVEAEDVGVYYCSQNTHVPPTFGQGTKVEIERTVAAPSVFIFPPSDEQLKSGTASVVCLLNNFYPREAKVQWKVDNALQSGNSQESVTEQDSKDSTYSLSSTLTLSKADYEKHKVYACEVTHQGLSSPVTKSFNRGEC
107 % of control	99.4 % of control		GpH7-A5/GpH7-B3 variant T335_06M/GpL16-k0 (antibody, human IgG1, kappa, change in the GpH7-B3 H chain only; also called He Ab) heavy 1: not shown heavy 2: not shown light: DIVMTQSPLSLPVTPGEPASISCQASESLVHSNRNTYLHWYLQKPGQSPQLLIYKVSNRFSGVPDRFSGSGSGTDFTLKISRVEAEDVGVYYCSQNTHVPPTFGQGTKVEIERTVAAPSVFIFPPSDEQLKSGTASVVCLLNNFYPREAKVQWKVDNALQSGNSQESVTEQDSKDSTYSLSSTLTLSKADYEKHKVYACEVTHQGLSSPVTKSFNRGEC
